Entries after “also recorded” stand apart in the source; their conditions may differ. Where two headings read alike, the source gives them in different places.
Legend:
[1] = Isoelectric focusing on agarose gel; assay type: physicochemical; conditions: agarose IEF
Method: IEF gel electrophoresis was run on pre-cast agarose gels (85×100 mm). Two electrode wicks were wetted with 1M phosphoric acid (anolyte) and 1M sodium hydroxide (catholyte). Electrophoresis was at 5 watts for 5 min, then at 10 watts for 1 h until the voltage was constant at 1200 V. The gel was immediately fixed in 15% aqueous trichloroacetic acid, blotted and rinsed with water, dried overnight, stained by using Coomassie G-250, and destained.

[2] = Heparin lyase activity assay (change of absorbance at 232 nm), heparan sulfate as substrate; assay type: biochemical
Method: The spectrophotometer was adjusted to the optimum temperature of the particular lyase being assayed. […] A measured quantity of lyase was added, bringing the final volume to 400 μl and the cuvette was gently mixed. The microcuvette was then immediately returned to the spectrophotometer and the change of absorbance at 232 nm was measured at 10 seconds intervals over 3 min. […] The specific activity was then calculated by dividing the micromoles of product produced per minute by the milligrams of protein in the cuvette. […] G., and Linhardt, R. J. (1989) Carbohydr. Res. 190, 219-233. Protein concentration was measured by the Bradford assay, Bradford, M. M. (1976) Anal. Biochem. 72, 248-254, based on a bovine serum albumin standard curve. […] The activities of each lyase (I acting on heparin, II acting on both heparin and heparan sulfate, and III acting on heparan sulfate) were then determined at different pH values. The buffer giving optimum activity for each heparin lyase was selected by testing buffers with buffering capacity near the pH optima calculated in the previous experiments. These buffers were: Tris-HCl, sodium phosphate, HEPES, MOPS, TES, and BTP-CHl. […] The heparin lyase assay solutions were made by diluting enzyme in 50 mM sodium phosphate buffer adjusted to the appropriate pH as previously described. Heparin lyase activity was determined in each buffer. Activity was assayed both immediately after addition to each buffer and following incubation for 24 h at 37° C. The salt concentration for optimum activity was investigated. Sodium chloride, potassium chloride, and sodium and potassium acetate were used to differentiate between ionic strength and specific ion affects. […] The temperature was adjusted in a temperature-regulated spectrophotometer and equilibrated for 10 min before the assay was started. Michaelis-Menten constants were determined using the optimized conditions. The final absorbance value for total depolymerization was divided by 20 to find a value that represented 5% reaction completion. The purified lyase preparations were diluted so that 5% of total depolymerization would be reached only at the end of a 3-min assay. The reaction velocities at specific molar concentrations for each lyase and their substrates were used for kinetic analysis using EZ-FIT hyperbolic curve-fitting program of […]. (1988) Anal. Biochem. 174, 437-447). Substrate solutions were prepared from 50 mg/ml heparin and 40 mg/ml for heparan sulfate stock solutions. […] The amount of purified lyase used was sufficient for complete depolymerization of heparin or heparan sulfate substrates within 30 min. The initial rate of depolymerization of each polysaccharide was measured, the reaction was then continued for 24 h, and the final level of polysaccharide depolymerization was assessed by measuring the final absorbance at 232 nm and expressed as percent activity.

[3] = Heparin lyase activity: effect of divalent metals and added salt, substrate specificity (each lyase on its substrates); assay type: biochemical; conditions: for effect of added salt on activity: increasing salt concentration, 0-500 mM
Method: The spectrophotometer was adjusted to the optimum temperature of the particular lyase being assayed. A 700 μl quartz microcuvette containing 400 μg of substrate in 50 mM sodium phosphate buffer (containing 100 mM sodium chloride for heparin lyase I) was thermally equilibrated. A measured quantity of lyase was added, bringing the final volume to 400 μl and the cuvette was gently mixed. The microcuvette was then immediately returned to the spectrophotometer and the change of absorbance at 232 nm was measured at 10 seconds intervals over 3 min. The activity was measured from the change of absorbance/unit time using an extinction coefficient of 3800 M^−1 for products. The specific activity was then calculated by dividing the micromoles of product produced per minute by the milligrams of protein in the cuvette. The molecular weights used for heparin, heparan sulfate, and the chondroitin sulfates were 14,000, 20,000 and 25,000, respectively, Rice, K. G., and Linhardt, R. J. (1989) Carbohydr. Res. 190, 219-233. Protein concentration was measured by the Bradford assay, Bradford, M. M. (1976) Anal. Biochem. 72, 248-254, based on a bovine serum albumin standard curve.
BTP-HCl buffer (50 mM) was prepared containing either 10 mM calcium chloride, 10 μM or 1 mM copper (II) chloride, 10 μM and 1 mM mercury (II) chloride, and 1 mM zinc (II) chloride. Each solution was adjusted to the optimum pH for the lyase being tested, and the activity of the heparin lyases was measured in the presence and absence of divalent metals.
The salt concentration for optimum activity was investigated. Sodium chloride, potassium chloride, and sodium and potassium acetate were used to differentiate between ionic strength and specific ion affects. Added salt concentrations varied between 0 and 500 mM and were prepared in 50 mM sodium phosphate buffer after which the pH was adjusted to each enzyme's optimum and the heparin lyase activity was measured.
Each heparin lyase was added to a solution of complex polysaccharides (1 mg/ml) under optimized assay conditions, and the reaction was monitored at 232 nm for 30 min. The amount of purified lyase used was sufficient for complete depolymerization of heparin or heparan sulfate substrates within 30 min. The initial rate of depolymerization of each polysaccharide was measured, the reaction was then continued for 24 h, and the final level of polysaccharide depolymerization was assessed by measuring the final absorbance at 232 nm and expressed as percent activity.

[4] = Temperature stability of lyase activity; assay type: physicochemical; conditions: protein 650 ng/ml
Method: Lyase assay stock solutions were prepared in the appropriate buffer and placed in water baths at the following temperatures: heparin lyase I at 30° C., heparin lyase II at 35° C., and heparin lyase III at both 35° and 40° C. […]

[5] = Activity remaining after incubation in buffers for 24 h at 37° C.; assay type: physicochemical; conditions: MOPS and HEPES
Method: The buffer giving optimum activity for each heparin lyase was selected by testing buffers with buffering capacity near the pH optima calculated in the previous experiments. These buffers were: Tris-HCl, sodium phosphate, HEPES, MOPS, TES, and BTP-CHl. Each buffer was prepared at 50 mM, and its pH was adjusted with hydrochloric acid or sodium hydroxide to 6.9 for heparin lyase II acting on heparin, 7.15 for heparin lyase I, 7.3 for heparin lyase II acting on heparan sulfate, and 7.6 for heparin lyase III. The heparin lyase assay solutions were made by diluting enzyme in 50 mM sodium phosphate buffer adjusted to the appropriate pH as previously described. Heparin lyase activity was determined in each buffer. Activity was assayed both immediately after addition to each buffer and following incubation for 24 h at 37° C.

B1: Heparin lyase III: heparin lyase III (heparitinase EC 4.2.2.8) purified to homogeneity from Flavobacterium heparinum (protein, UniProt Q59289 25-659, looked up)
Heparin-sulfate lyase: QSSSITRKDFDHINLEYSGLEKVNKAVAAGNYDDAAKALLAYYREKSKAREPDFSNAEKPADIRQPIDKVTREMADKALVHQFQPHKGYGYFDYGKDINWQMWPVKDNEVRWQLHRVKWWQAMALVYHATGDEKYAREWVYQYSDWARKNPLGLSQDNDKFVWRPLEVSDRVQSLPPTFSLFVNSPAFTPAFLMEFLNSYHQQADYLSTHYAEQGNHRLFEAQRNLFAGVSFPEFKDSPRWRQTGISVLNTEIKKQVYADGMQFELSPIYHVAAIDIFLKAYGSAKRVNLEKEFPQSYVQTVENMIMALISISLPDYNTPMFGDSWITDKNFRMAQFASWARVFPANQAIKYFATDGKQGKAPNFLSKALSNAGFYTFRSGWDKNATVMVLKASPPGEFHAQPDNGTFELFIKGRNFTPDAGVFVYSGDEAIMKLRNWYRQTRIHSTLTLDNQNMVITKARQNKWETGNNLDVLTYTNPSYPNLDHQRSVLFINKKYFLVIDRAIGEATGNLGVHWQLKEDSNPVFDKTKNRVYTTYRDGNNLMIQSLNADRTSLNEEEGKVSYVYNKELKRPAFVFEKPKKNAGTQNFVSIVYPYDGQKAPEISIRENKGNDFEKGKLNLTLTINGKQQLVLVP
For B1, the “pI (isoelectric point)” value [1] was roughly 9.2, the “pI (isoelectric point)” value ([1]; listed as heparin lyase III) was 9.9-10.1 and the “Unit/mg (specific activity)” value ([2]; final GPC-HPLC purification step, acting on heparan sulfate) was 63.5 Unit/mg. The “average number of sites acted at in the heparan sulfate polymer” value ([2]; final level of depolymerization, 24 h) was 20 sites, the “initial activity in six buffers (Tris-HCl, sodium phosphate, HEPES, MOPS, TES, BTP-HCl)” value ([2]; heparan sulfate, 50 mM buffer at optimum pH) was “only slight differences in activity” and the “temperature for maximum activity” value ([2]; heparan sulfate, 50 mM sodium phosphate at optimum pH, 15-55° C.) was 45 °C. The Km ([2]; heparan sulfate, II: 35° C., pH 6.9, III: 35° C., pH 7.6, value ± standard error, read-out: Km(app)) was 29.4 ± 3.16 µM, the “optimum temperature (summary)” value ([2]; heparan sulfate, activity greater at higher temperatures but stability reduced) was 35 °C and the Vmax ([2]; heparan sulfate, optimized conditions, value ± standard error) was 141 ± 3.88 μmol/min mg protein. For the same molecule, the “pH optimum for activity” value ([2]; on heparan sulfate) was 7.6, the specific activity ([2]; purified lyase, toward heparan sulfate) was 63.5 units/mg and the “Km (Michelis-Menton constant, summary)” value ([2]; with heparan sulfate) was 0.780 mg/mL. The “V(max) (summary)” value ([2]; with heparan sulfate) was 277.01, the Km ([2]; with heparan sulfate, read-out: Km (Michelis-Menton constant, summary)) was 110 µM and the substrates acted on [3] was “acts only on heparan sulfate”. The “effect of copper on activity” value ([3]; 10 μM copper (II) chloride) was “unaffected”, the “effect of mercury on activity” value ([3]; 10 μM mercury (II) chloride) was “unaffected” and the “effect of copper on activity” value ([3]; 1 mM copper (II) chloride) was “inhibited”. For the same molecule, the “effect of mercury on activity” value ([3]; 1 mM mercury (II) chloride) was “inhibited”, the “effect of zinc on activity” value ([3]; 1 mM zinc (II) chloride) was “inhibited” and the “effect of calcium on activity (increase)” value ([3]; 10 mM calcium chloride, 50 mM BTP-HCl) was 20%. For the same molecule, the “effect of added salt on activity” value [3] was “decrease in activity; also recorded: decreases”, the “effect of added salt on activity” value ([3]; listed as heparinase III) was “not observed” and the “time in which 80% of activity was lost” value ([4]; 35° C.) was 3.5 h. The “time in which 80% of activity was lost” value ([4]; 40° C.) was 0.5 h and the “retention of activity after incubation” value [5] was 15-30%.

Source: patent USRE41461E1, “Purification, composition and specificity of Heparinase I, II, and III from Flavobacterium heparinum” (Massachusetts Institute of Technology, priority 1992, dated 2010)
